Source: PMC6265486 (Nucleic Acids Research, 2018)

Experiments:
[1] = molecular target: T1, human mtSSB (Homo sapiens) (UniProt Q04837); assay: AFM; settings: Anisotropy: 30 mM HEPES-KOH pH 7.5, 1 mM 2-mercaptoethanol, 5 mM MgCl2, 0.01% NP-40, 50 mM NaCl, 20 nM oligo, 20 C. AFM/DREEM: incubation in 20 mM HEPES pH …
T1 sequence: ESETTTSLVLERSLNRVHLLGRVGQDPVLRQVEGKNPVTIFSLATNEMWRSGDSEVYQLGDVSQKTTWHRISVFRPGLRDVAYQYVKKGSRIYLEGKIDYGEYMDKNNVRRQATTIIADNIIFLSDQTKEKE

[2] = molecular target: T2, human mtSSB (Homo sapiens, UniProt Q04837 17-148); assay: fluorescence anisotropy; 5 mM MgCl2, 50 mM NaCl; tetramers; Anisotropy: 30 mM HEPES-KOH pH 7.5, 1 mM 2-mercaptoethanol, 5 mM MgCl2, 0.01% NP-40, 50 mM NaCl, 20 nM oligo, 20 C. AFM/DREEM: incubation in 20 mM HEPES pH 7.5
T2 sequence: T1 sequence

[3] = molecular target: T2, human mtSSB; assay: fluorescence anisotropy; 5 mM MgCl2, 50 mM NaCl; Anisotropy: 30 mM HEPES-KOH pH 7.5, 1 mM 2-mercaptoethanol, 5 mM MgCl2, 0.01% NP-40, 50 mM NaCl, 20 nM oligo, 20 C. AFM/DREEM: incubation in 20 mM HEPES pH 7.5
[4] = molecular target: T3, E. coli SSB (Escherichia coli, UniProt P0AGE0 1-178); assay: fluorescence anisotropy; 5 mM MgCl2, 50 mM NaCl; tetramers; Hill coefficient 1.84; Anisotropy: 30 mM HEPES-KOH pH 7.5, 1 mM 2-mercaptoethanol, 5 mM MgCl2, 0.01% NP-40, 50 mM NaCl, 20 nM oligo, 20 C. AFM/DREEM: incubation in 20 mM HEPES pH 7.5
[5] = molecular target: T2, human mtSSB; assay: fluorescence anisotropy; 5 mM MgCl2, 50 mM NaCl; tetramers; Hill coefficient 2.00; Anisotropy: 30 mM HEPES-KOH pH 7.5, 1 mM 2-mercaptoethanol, 5 mM MgCl2, 0.01% NP-40, 50 mM NaCl, 20 nM oligo, 20 C. AFM/DREEM: incubation in 20 mM HEPES pH 7.5
[6] = molecular target: T3, E. coli SSB; assay: AFM/DREEM; 100 mM NaCl; 10 mM Mg(OAc)2 in imaging buffer; 35% one strand wrapped, 65% two; Anisotropy: 30 mM HEPES-KOH pH 7.5, 1 mM 2-mercaptoethanol, 5 mM MgCl2, 0.01% NP-40, 50 mM NaCl, 20 nM oligo, 20 C. AFM/DREEM: incubation in 20 mM HEPES pH 7.5
[7] = molecular target: T2, human mtSSB; assay: AFM/DREEM; 100 mM NaCl; 10 mM Mg(OAc)2 in imaging buffer; 85% one strand wrapped, 15% two; Anisotropy: 30 mM HEPES-KOH pH 7.5, 1 mM 2-mercaptoethanol, 5 mM MgCl2, 0.01% NP-40, 50 mM NaCl, 20 nM oligo, 20 C. AFM/DREEM: incubation in 20 mM HEPES pH 7.5
[8] = molecular target: the molecule itself; assay: AFM volume measurement; free mtSSB (8.4 nM tetramers) diluted in 20 mM HEPES (pH 7.5), 100 mM NaCl, deposited on freshly cleaved mica, imaged in air (AC mode); AFM volume converted to molecular weight with a calibration curve

T3 sequence (P0AGE0 whole entry): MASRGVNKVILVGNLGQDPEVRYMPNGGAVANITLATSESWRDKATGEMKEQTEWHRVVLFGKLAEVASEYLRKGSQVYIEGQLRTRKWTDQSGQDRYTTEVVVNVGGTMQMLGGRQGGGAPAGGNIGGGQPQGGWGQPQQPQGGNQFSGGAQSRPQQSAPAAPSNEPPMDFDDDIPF

Molecule: linear 2030-bp DNA with 37-nt ssDNA gap
- binding signal (KSP/KNSP (gap vs duplex specificity)) [1]: 14500

B1: D1-F 40-nt ssDNA (ssDNA)
DNA: ATGCTAGCTTGGCTGTGACTTTAAACCTGTCGTGCCAGCT
modifications: fluorescein on internal T21
- Kd [2]: 1.8 ± 0.9 nM

B2: D1-F/D2 40-bp dsDNA (dsDNA)
DNA 1: B1 DNA
DNA 2: AGCTGGCACGACAGGTTTAAAGTCACAGCCAAGCTAGCAT
modifications: fluorescein on internal T21 of D1
- binding result [3]: no binding

B3: 5'-fluorescein 90-nt oligonucleotide (ssDNA)
DNA: TAATGCTATCACTATTCGTAGACTTGACCACACCTTGTCAGCTCACGCTCCAAATGAAAGTATAGCTAAACAGGTTATTGACCATATGCA
modifications: fluorescein on 5'-terminal T
- Kd [4]: 25.4 ± 1.3 nM
- Kd [5]: 14.7 ± 0.5 nM

B4: 90-nt oligonucleotide (ssDNA)
DNA: B3 DNA
- binding result [6]: binds
- binding result [7]: binds

B5: human mitochondrial single-stranded DNA binding protein (natural protein, UniProt Q04837 17-148, looked up)
chain: T1 sequence
- stoichiometry N [8]: 4
